B1: EHEE_rd2_0191 (parent)
chain: TTEYTFTDDEEARRAIEELKKRGLTFRYEKHGTTWRVRVD

Variants of: B1
Assay: folding stability dG (cDNA display proteolysis); higher = more stable
Conditions: PBS, room temperature
In the case of E17Q, the “folding stability dG” value is reported as 2.04 kcal/mol. For E17R, the “folding stability dG” value was 2.23 kcal/mol. In the case of E17S, the “folding stability dG” value is reported as 1.97 kcal/mol. With E17T the “folding stability dG” value was 1.89 kcal/mol. In the case of E17V, the “folding stability dG” value is reported as 1.83 kcal/mol. With E17W the “folding stability dG” value was 2.07 kcal/mol. In the case of E17Y, the “folding stability dG” value is reported as 2.02 kcal/mol. In the case of E18A, the “folding stability dG” value is reported as 2.01 kcal/mol. In the case of E18D, the “folding stability dG” value is reported as 2.03 kcal/mol. For E18F, the “folding stability dG” value was 2.12 kcal/mol. In the case of E18G, the “folding stability dG” value is reported as 1.74 kcal/mol. In the case of E18H, the “folding stability dG” value is reported as 1.86 kcal/mol. For E18I, the “folding stability dG” value was 2.15 kcal/mol. For E18K, the “folding stability dG” value was 1.74 kcal/mol. For E18L, the “folding stability dG” value was 2.08 kcal/mol. In the case of E18M, the “folding stability dG” value is reported as 2.11 kcal/mol. For E18N, the “folding stability dG” value was 1.9 kcal/mol. With E18Q the “folding stability dG” value was 1.97 kcal/mol. For E18R, the “folding stability dG” value was 1.7 kcal/mol. For E18S, the “folding stability dG” value was 1.99 kcal/mol. In the case of E18T, the “folding stability dG” value is reported as 1.84 kcal/mol. For E18V, the “folding stability dG” value was 1.96 kcal/mol. For E18W, the “folding stability dG” value was 2.69 kcal/mol. With E18Y the “folding stability dG” value was 2.29 kcal/mol. With L19A the “folding stability dG” value was 0.832 kcal/mol. With L19F the “folding stability dG” value was 2.64 kcal/mol. With L19I the “folding stability dG” value was 1.55 kcal/mol. With L19M the “folding stability dG” value was 1.73 kcal/mol. For L19V, the “folding stability dG” value was 0.238 kcal/mol. With L19W the “folding stability dG” value was 1.94 kcal/mol. For L19Y, the “folding stability dG” value was 1.58 kcal/mol. With K20A the “folding stability dG” value was 1.81 kcal/mol. For K20C, the “folding stability dG” value was 2.56 kcal/mol. In the case of K20D, the “folding stability dG” value is reported as 1.15 kcal/mol. With K20E the “folding stability dG” value was 1.86 kcal/mol. With K20F the “folding stability dG” value was 2.02 kcal/mol. For K20G, the “folding stability dG” value was 1.41 kcal/mol. In the case of K20H, the “folding stability dG” value is reported as 1.71 kcal/mol. With K20I the “folding stability dG” value was 2.42 kcal/mol. For K20L, the “folding stability dG” value was 2.15 kcal/mol. In the case of K20M, the “folding stability dG” value is reported as 2.15 kcal/mol. With K20N the “folding stability dG” value was 1.54 kcal/mol. For K20Q, the “folding stability dG” value was 2 kcal/mol. With K20R the “folding stability dG” value was 2.27 kcal/mol. In the case of K20S, the “folding stability dG” value is reported as 1.81 kcal/mol. For K20T, the “folding stability dG” value was 2.12 kcal/mol. For K20V, the “folding stability dG” value was 2.07 kcal/mol. In the case of K20W, the “folding stability dG” value is reported as 1.75 kcal/mol. In the case of K20Y, the “folding stability dG” value is reported as 1.99 kcal/mol. In the case of K21A, the “folding stability dG” value is reported as 2.12 kcal/mol. For K21C, the “folding stability dG” value was 2.13 kcal/mol. In the case of K21D, the “folding stability dG” value is reported as 1.32 kcal/mol. For K21E, the “folding stability dG” value was 1.71 kcal/mol. In the case of K21F, the “folding stability dG” value is reported as 1.63 kcal/mol. For K21G, the “folding stability dG” value was 1.45 kcal/mol. In the case of K21H, the “folding stability dG” value is reported as 1.58 kcal/mol. With K21I the “folding stability dG” value was 1.79 kcal/mol. For K21L, the “folding stability dG” value was 1.94 kcal/mol. With K21M the “folding stability dG” value was 1.9 kcal/mol. For K21N, the “folding stability dG” value was 1.78 kcal/mol. In the case of K21Q, the “folding stability dG” value is reported as 1.81 kcal/mol. For K21R, the “folding stability dG” value was 2.35 kcal/mol. With K21S the “folding stability dG” value was 1.94 kcal/mol. In the case of K21T, the “folding stability dG” value is reported as 1.82 kcal/mol. In the case of K21V, the “folding stability dG” value is reported as 1.66 kcal/mol. For K21W, the “folding stability dG” value was 1.37 kcal/mol. For K21Y, the “folding stability dG” value was 1.49 kcal/mol. With R22A the “folding stability dG” value was 2.1 kcal/mol. In the case of R22D, the “folding stability dG” value is reported as 1.03 kcal/mol. For R22E, the “folding stability dG” value was 1.35 kcal/mol. With R22F the “folding stability dG” value was 1.55 kcal/mol. In the case of R22G, the “folding stability dG” value is reported as 1.28 kcal/mol. In the case of R22H, the “folding stability dG” value is reported as 1.64 kcal/mol. For R22I, the “folding stability dG” value was 1.52 kcal/mol. For R22K, the “folding stability dG” value was 2.02 kcal/mol. For R22L, the “folding stability dG” value was 2.25 kcal/mol. For R22M, the “folding stability dG” value was 2.19 kcal/mol. With R22N the “folding stability dG” value was 1.69 kcal/mol. In the case of R22Q, the “folding stability dG” value is reported as 2.1 kcal/mol. For R22S, the “folding stability dG” value was 1.93 kcal/mol. For R22T, the “folding stability dG” value was 1.56 kcal/mol. With R22V the “folding stability dG” value was 1.23 kcal/mol. With R22W the “folding stability dG” value was 1.78 kcal/mol. With R22Y the “folding stability dG” value was 1.55 kcal/mol. With G23A the “folding stability dG” value was 0.759 kcal/mol. With G23C the “folding stability dG” value was 1.31 kcal/mol. For G23D, the “folding stability dG” value was 0.517 kcal/mol. In the case of G23E, the “folding stability dG” value is reported as 0.428 kcal/mol. In the case of G23F, the “folding stability dG” value is reported as 0.765 kcal/mol. With G23H the “folding stability dG” value was 1.26 kcal/mol. For G23K, the “folding stability dG” value was 1.21 kcal/mol. With G23L the “folding stability dG” value was 0.596 kcal/mol. For G23M, the “folding stability dG” value was 0.906 kcal/mol. With G23N the “folding stability dG” value was 1.4 kcal/mol. In the case of G23Q, the “folding stability dG” value is reported as 0.972 kcal/mol. In the case of G23R, the “folding stability dG” value is reported as 1.18 kcal/mol. For G23S, the “folding stability dG” value was 0.756 kcal/mol. For G23T, the “folding stability dG” value was -0.314 kcal/mol. With G23W the “folding stability dG” value was 0.206 kcal/mol. In the case of G23Y, the “folding stability dG” value is reported as 0.547 kcal/mol. With L24A the “folding stability dG” value was 2 kcal/mol. In the case of L24D, the “folding stability dG” value is reported as 0.718 kcal/mol. With L24E the “folding stability dG” value was 1.1 kcal/mol. With L24F the “folding stability dG” value was 2.08 kcal/mol. For L24G, the “folding stability dG” value was 0.321 kcal/mol. In the case of L24H, the “folding stability dG” value is reported as 1.46 kcal/mol. With L24I the “folding stability dG” value was 2.16 kcal/mol. In the case of L24K, the “folding stability dG” value is reported as 1.55 kcal/mol. In the case of L24M, the “folding stability dG” value is reported as 1.91 kcal/mol. For L24N, the “folding stability dG” value was 0.838 kcal/mol. In the case of L24Q, the “folding stability dG” value is reported as 1.27 kcal/mol. For L24R, the “folding stability dG” value was 1.42 kcal/mol. In the case of L24S, the “folding stability dG” value is reported as 1.18 kcal/mol. For L24T, the “folding stability dG” value was 1.12 kcal/mol. With L24V the “folding stability dG” value was 2.14 kcal/mol. With L24W the “folding stability dG” value was 1.65 kcal/mol. For L24Y, the “folding stability dG” value was 2.15 kcal/mol. In the case of T25A, the “folding stability dG” value is reported as 1.95 kcal/mol. In the case of T25D, the “folding stability dG” value is reported as 1.46 kcal/mol. In the case of T25E, the “folding stability dG” value is reported as 1.58 kcal/mol. In the case of T25F, the “folding stability dG” value is reported as 2.15 kcal/mol. For T25G, the “folding stability dG” value was 1.49 kcal/mol. For T25H, the “folding stability dG” value was 2.25 kcal/mol. In the case of T25I, the “folding stability dG” value is reported as 2.14 kcal/mol. For T25K, the “folding stability dG” value was 2.25 kcal/mol. In the case of T25L, the “folding stability dG” value is reported as 1.97 kcal/mol. For T25M, the “folding stability dG” value was 1.95 kcal/mol. In the case of T25N, the “folding stability dG” value is reported as 2.12 kcal/mol. For T25P, the “folding stability dG” value was 1.84 kcal/mol. With T25Q the “folding stability dG” value was 2.01 kcal/mol. With T25R the “folding stability dG” value was 2.27 kcal/mol. For T25S, the “folding stability dG” value was 2.29 kcal/mol. For T25V, the “folding stability dG” value was 2.08 kcal/mol. In the case of T25W, the “folding stability dG” value is reported as 2.28 kcal/mol. With T25Y the “folding stability dG” value was 2.07 kcal/mol. With F26A the “folding stability dG” value was 0.99 kcal/mol. In the case of F26H, the “folding stability dG” value is reported as 0.04 kcal/mol. For F26I, the “folding stability dG” value was 2.04 kcal/mol. In the case of F26L, the “folding stability dG” value is reported as 1.61 kcal/mol. In the case of F26M, the “folding stability dG” value is reported as 0.795 kcal/mol. In the case of F26P, the “folding stability dG” value is reported as 1.41 kcal/mol. In the case of F26T, the “folding stability dG” value is reported as 0.447 kcal/mol. For F26V, the “folding stability dG” value was 2.73 kcal/mol. In the case of F26W, the “folding stability dG” value is reported as 0.681 kcal/mol. In the case of F26Y, the “folding stability dG” value is reported as 1.73 kcal/mol. For R27A, the “folding stability dG” value was 2.1 kcal/mol. In the case of R27D, the “folding stability dG” value is reported as 1.62 kcal/mol. For R27E, the “folding stability dG” value was 2.02 kcal/mol. For R27F, the “folding stability dG” value was 2.29 kcal/mol. In the case of R27G, the “folding stability dG” value is reported as 1.37 kcal/mol. In the case of R27H, the “folding stability dG” value is reported as 2.39 kcal/mol. In the case of R27I, the “folding stability dG” value is reported as 2.29 kcal/mol. In the case of R27K, the “folding stability dG” value is reported as 2 kcal/mol. For R27L, the “folding stability dG” value was 1.74 kcal/mol. In the case of R27M, the “folding stability dG” value is reported as 2.03 kcal/mol. For R27N, the “folding stability dG” value was 1.91 kcal/mol. For R27Q, the “folding stability dG” value was 2.25 kcal/mol. With R27S the “folding stability dG” value was 2.73 kcal/mol. With R27T the “folding stability dG” value was 3.02 kcal/mol. For R27V, the “folding stability dG” value was 2.51 kcal/mol. For R27W, the “folding stability dG” value was 2.77 kcal/mol. In the case of R27Y, the “folding stability dG” value is reported as 2.42 kcal/mol. With Y28A the “folding stability dG” value was 2.4 kcal/mol. With Y28C the “folding stability dG” value was 2.52 kcal/mol. With Y28D the “folding stability dG” value was -0.987 kcal/mol. With Y28E the “folding stability dG” value was 0.447 kcal/mol. In the case of Y28F, the “folding stability dG” value is reported as 2.06 kcal/mol.
